± gives the standard deviation of the averaged measurements.
Assays:
[1] = test system: VchCAST RNA-guided transposition machinery (E. coli BL21(DE3) host, lacZ target); assay: relative integration efficiency (T-RL orientation) vs wild-type transposon end (log2 (normalized fold change)); transposon end mutated: right end (5 bp flank + 75 bp right end); higher = more efficient transposition
In short: (§1)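 Barcode abundances in input plasmids and in genomic integration junctions were obtained by PCR amplification and Illumina sequencing. These came from E. coli BL21(DE3) co-transformed with a T7-driven effector plasmid and a pUC57 donor carrying 1549 left-end or 1849 right-end transposon variants, then plated with 0.1 mM IPTG at 37°C for 18 h. Relative integration efficiency is the output/input fold change, normalised to reference barcodes and log-transformed.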

[2] = test system: VchCAST RNA-guided transposition machinery (E. coli BL21(DE3) host, lacZ target); assay: relative integration efficiency (T-LR orientation) vs wild-type transposon end (log2 (normalized fold change)); transposon end mutated: right end (5 bp flank + 75 bp right end); higher = more efficient transposition
In short: as §1

Row | Sequence | relative integration efficiency (log2) [1] | relative integration efficiency (log2) [2]
1 | ACATTTGTTGATACAACCATAAGTTGATATTTTCACCCATAAATTGATATTGCTCACAACCATAAAATGATAATTACTCTGATCATAGTCAGACCAACATTGCTACGACCCGTATTCGCACCGACAC | -0.631 ± 0.13 | -0.0881 ± 0.35
2 | ACATTTGTTGATACAACCATAAGTTGATATTTTCACCCATAAATTGATATTGCTCACAACCATAAAGTGATATTTACTCTGATCATAGTCAGACCAACATTGCTACGACCCGTATTCGCACCGACAC | -0.377 ± 0.053 | -0.333 ± 0.49
3 | ACATTTGTTGATACAACCATAAGTTGATATTTTCACCCATAAATTGATATTGCTCACAACCATAAGTTGATATTTTCTCTGATCATAGTCAGACCAACATTGCTACGACCCGTATTCGCACCGACAC | -0.281 ± 0.16 | -0.109 ± 0.43
4 | ACATTTGTTGATACAACCATAAGTTGATATTTTCACCCATAAATTGATATTGCTCACAACCATATATTGATATCTCCTCTGATCATAGTCAGACCAACATTGCTACGACCCGTATTCGCACCGACAC | -0.904 ± 0.14 | 0.0122 ± 0.21
5 | ACATTTGTTGATACAACCATAAGTTGATATTTTCACCCATAAATTGATATTGCTCACACCCATAAATTGATAATTACTCTGATCATAGTCAGACCAACATTGCTACGACCCGTATTCGCACCGACAC | -0.658 ± 0.16 | 0.36 ± 0.054
6 | ACATTTGTTGATACAACCATAAGTTGATATTTTCACCCATAAATTGATATTGCTCACACCCATAAATTGATATTGCCTCTGATCATAGTCAGACCAACATTGCTACGACCCGTATTCGCACCGACAC | -0.468 ± 0.17 | 0.258 ± 0.12
7 | ACATTTGTTGATACAACCATAAGTTGATATTTTCACCCATAAATTGATATTGCTCAGTGGGTATTTAACTATAACGCTCTGATCATAGTCAGACCAACATTGCTACGACCCGTATTCGCACCGACAC | -1.19 ± 0.12 | 2.31 ± 0.065
8 | ACATTTGTTGATACAACCATAATATGATAATTACACCCATAATTTGATAATTATCACACCCATAATTTGATATTGCCTCTGATCATAGTCAGACCAACATTGCTACGACCCGTATTCGCACCGACAC | -0.262 ± 0.035 | -0.428 ± 0.015
9 | ACATTTGTTGATACAACCATAATTACATAATTACACCCATAAATTGATAATTATCACACCCATAAATTGATATTGCCTCTGATCATAGTCAGACCAACATTGCTACGACCCGTATTCGCACCGACAC | -2.32 ± 0.15 | -2.85 ± 0.16
10 | ACATTTGTTGATACAACCATAATTTGATAATTACACCCATAAATTGATAATTATCACACCCATAAATTGATATTGCCTCTGATCATAGTCAGACCAACATTGCTACGACCCGTATTCGCACCGACAC | -0.314 ± 0.1 | -0.168 ± 0.26
11 | ACATTTGTTGATACAACCATAATTTGATAATTACACCCATAATATGATAATTATCACACCCATAATATGATATTGCCTCTGATCATAGTCAGACCAACATTGCTACGACCCGTATTCGCACCGACAC | -0.651 ± 0.15 | -0.228 ± 0.16
12 | ACATTTGTTGATACAACCATACAATGATAATTACACCCATACATTGATAATTATCACACCCATACATTGATATTGCCTCTGATCATAGTCAGACCAACATTGCTACGACCCGTATTCGCACCGACAC | -2.95 ± 0.34 | -1.3 ± 0.016
13 | ACATTTGTTGATACAACCATACCATGATAATTACACCCATAAATTGATAATTATCACACCCATAAATTGATATTGCCTCTGATCATAGTCAGACCAACATTGCTACGACCCGTATTCGCACCGACAC | -1.34 ± 0.079 | -1.98 ± 0.24
14 | ACATTTGTTGATACAACCATACCATGATAATTACACCCATACCTTGATAATTATCACACCCATACCTTGATATTGCCTCTGATCATAGTCAGACCAACATTGCTACGACCCGTATTCGCACCGACAC | -3.2 ± 0.16 | -1.75 ± 0.22
15 | ACATTTGTTGATACAACCATACCCGGATAATTACACCCATAAATTGATAATTATCACACCCATAAATTGATATTGCCTCTGATCATAGTCAGACCAACATTGCTACGACCCGTATTCGCACCGACAC | -3.77 ± 0.26 | -4.39 ± 0.99
16 | ACATTTGTTGATACAACCATACCCGTCGCCGGCACAAACGCCCGGTCGCCGGCGACACAAACGCCCGGTCGCGGTAAGAGGATCATAGTCAGACCAACATTGCTACGACCCGTATTCGCACCGACAC | -6.48 ± 0.07 | -4.78 ± 0.59
17 | ACATTTGTTGATACAACCATACCCTGATAATTACACCCATACCGTGATAATTATCACACCCATACCGTGATATTGCCTCTGATCATAGTCAGACCAACATTGCTACGACCCGTATTCGCACCGACAC | -4.24 ± 0.2 | -2.37 ± 1
18 | ACATTTGTTGATACAACCATATAATGATAATAACACCAATAAAATGATAATTATCACACCCAATTTAACTATAACGCTCTGATCATAGTCAGACCAACATTGCTACGACCCGTATTCGCACCGACAC | -1.09 ± 0.33 | 1.887 ± 0.0053

Row | Sequence | relative integration efficiency (log2) [1] | relative integration efficiency (log2) [2]
19 | ACATTTGTTGATACAACCATATAATGATAATAACACCCATAAAATGATAATTATCACACCCAATTTAACTATAACGCTCTGATCATAGTCAGACCAACATTGCTACGACCCGTATTCGCACCGACAC | -1.15 ± 0.33 | 2.16 ± 0.14
20 | ACATTTGTTGATACAACCATATAATGATAATAACACCCCTAAAATGATAATTATCACACCCAATTTAACTATAACGCTCTGATCATAGTCAGACCAACATTGCTACGACCCGTATTCGCACCGACAC | -2.99 ± 0.37 | 0.598 ± 0.1
21 | ACATTTGTTGATACAACCATATAATGATAATAACACCGATAAAATGATAATTATCACACCCAATTTAACTATAACGCTCTGATCATAGTCAGACCAACATTGCTACGACCCGTATTCGCACCGACAC | -1.46 ± 0.28 | 1.74 ± 0.093
22 | ACATTTGTTGATACAACCATATAATGATAATTACACCCATATATTGATAATTATCACACCCATATATTGATATTGCCTCTGATCATAGTCAGACCAACATTGCTACGACCCGTATTCGCACCGACAC | 0.0833 ± 0.11 | 0.24 ± 0.36
23 | ACATTTGTTGATACAACCATATATTGATATCTCCAACCATAAAATGATAATTATCACAACCATAAAATGATAATTACTCTGATCATAGTCAGACCAACATTGCTACGACCCGTATTCGCACCGACAC | -0.172 ± 0.01 | -0.314 ± 0.062
24 | ACATTTGTTGATACAACCATATATTGATATCTCCAACCATAAAATGATAATTATCACAACCATAAAGTGATATTTACTCTGATCATAGTCAGACCAACATTGCTACGACCCGTATTCGCACCGACAC | -0.115 ± 0.074 | -0.441 ± 0.36
25 | ACATTTGTTGATACAACCATATATTGATATCTCCAACCATAAAATGATAATTATCACAACCATAAGTTGATATTTTCTCTGATCATAGTCAGACCAACATTGCTACGACCCGTATTCGCACCGACAC | -0.491 ± 0.098 | -0.357 ± 0.16
26 | ACATTTGTTGATACAACCATATATTGATATCTCCAACCATAAAATGATAATTATCACAACCATATATTGATATCTCCTCTGATCATAGTCAGACCAACATTGCTACGACCCGTATTCGCACCGACAC | -0.5854 ± 0.0047 | -0.283 ± 0.24
27 | ACATTTGTTGATACAACCATATATTGATATCTCCAACCATAAAATGATAATTATCACACCCATAAATTGATAATTACTCTGATCATAGTCAGACCAACATTGCTACGACCCGTATTCGCACCGACAC | -0.0947 ± 0.0052 | -0.0737 ± 0.099
28 | ACATTTGTTGATACAACCATATATTGATATCTCCAACCATAAAATGATAATTATCACACCCATAAATTGATATTGCCTCTGATCATAGTCAGACCAACATTGCTACGACCCGTATTCGCACCGACAC | -0.212 ± 0.018 | -0.381 ± 0.023
29 | ACATTTGTTGATACAACCATATATTGATATCTCCAACCATAAAATGATAATTATCAGTGGGTATTTAACTATAACGCTCTGATCATAGTCAGACCAACATTGCTACGACCCGTATTCGCACCGACAC | -1.15 ± 0.24 | 2.32 ± 0.29
30 | ACATTTGTTGATACAACCATATATTGATATCTCCAACCATAAAGTGATATTTATCACAACCATAAAATGATAATTACTCTGATCATAGTCAGACCAACATTGCTACGACCCGTATTCGCACCGACAC | -0.716 ± 0.2 | -0.762 ± 0.065
31 | ACATTTGTTGATACAACCATATATTGATATCTCCAACCATAAAGTGATATTTATCACAACCATAAAGTGATATTTACTCTGATCATAGTCAGACCAACATTGCTACGACCCGTATTCGCACCGACAC | -0.409 ± 0.1 | -0.451 ± 0.11
32 | ACATTTGTTGATACAACCATATATTGATATCTCCAACCATAAAGTGATATTTATCACAACCATAAGTTGATATTTTCTCTGATCATAGTCAGACCAACATTGCTACGACCCGTATTCGCACCGACAC | 0.261 ± 0.2 | 0.0054 ± 0.55
33 | ACATTTGTTGATACAACCATATATTGATATCTCCAACCATAAAGTGATATTTATCACAACCATATATTGATATCTCCTCTGATCATAGTCAGACCAACATTGCTACGACCCGTATTCGCACCGACAC | -0.515 ± 0.17 | -0.237 ± 0.36
34 | ACATTTGTTGATACAACCATATATTGATATCTCCAACCATAAAGTGATATTTATCACACCCATAAATTGATAATTACTCTGATCATAGTCAGACCAACATTGCTACGACCCGTATTCGCACCGACAC | -0.578 ± 0.023 | -0.426 ± 0.18
35 | ACATTTGTTGATACAACCATATATTGATATCTCCAACCATAAAGTGATATTTATCACACCCATAAATTGATATTGCCTCTGATCATAGTCAGACCAACATTGCTACGACCCGTATTCGCACCGACAC | -0.42 ± 0.096 | -0.302 ± 0.25
